# Assay results as given in IntAct's records for PubMed 31515488.
# B1: Seipin (Homo sapiens), Q96G97-4 (parent)
# chain: MSTEKVDQKEEAGEKEVCGDQIKGPDKEEEPPAAASHGQGWRPGGRAARNARPEPGARHPALPAMVNDPPVPALLWAQEVGQVLAGRARRLLLQFGVLFCTILLLLWVSVFLYGSFYYSYMPTVSHLSPVHFYYRTDCDSSTTSLCSFPVANVSLTKGGRDRVLMYGQPYRVTLELELPESPVNQDLGMFLVTISCYTRGGRIISTSSRSVMLHYRSDLLQMLDTLVFSSLLLFGFAEQKQLLEVELYADYRENSYVPTTGAIIEIHSKRIQLYGAYLRIHAHFTGLRYLLYNFPMTCAFIGVASNFTFLSVIVLFSYMQWVWGGIWPRHRFSLQVNIRKRDNSRKEVQRRISAHQPGPEGQEESTPQSDVTEDGESPEDPSGTEGQLSEEEKPDQQPLSGEEELEPEASDGSGSWEDAALLTEANLPAPAPASASAPVLETLGSSEPAGGALRQRPTCSSS
# partner: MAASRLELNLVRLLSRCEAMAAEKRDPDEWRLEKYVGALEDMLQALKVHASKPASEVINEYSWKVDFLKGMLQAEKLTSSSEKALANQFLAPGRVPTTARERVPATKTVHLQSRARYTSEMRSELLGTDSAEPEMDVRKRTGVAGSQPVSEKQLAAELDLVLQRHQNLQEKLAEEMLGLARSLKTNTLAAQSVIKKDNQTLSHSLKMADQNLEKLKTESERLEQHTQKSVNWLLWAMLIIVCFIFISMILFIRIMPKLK
# B2: Zinc finger protein RFP (Homo sapiens), P14373 (parent)
# chain: MASGSVAECLQQETTCPVCLQYFAEPMMLDCGHNICCACLARCWGTAETNVSCPQCRETFPQRHMRPNRHLANVTQLVKQLRTERPSGPGGEMGVCEKHREPLKLYCEEDQMPICVVCDRSREHRGHSVLPLEEAVEGFKEQIQNQLDHLKRVKDLKKRRRAQGEQARAELLSLTQMEREKIVWEFEQLYHSLKEHEYRLLARLEELDLAIYNSINGAITQFSCNISHLSSLIAQLEEKQQQPTRELLQDIGDTLSRAERIRIPEPWITPPDLQEKIHIFAQKCLFLTESLKQFTEKMQSDMEKIQELREAQLYSVDVTLDPDTAYPSLILSDNLRQVRYSYLQQDLPDNPERFNLFPCVLGSPCFIAGRHYWEVEVGDKAKWTIGVCEDSVCRKGGVTSAPQNGFWAVSLWYGKEYWALTSPMTALPLRTPLQRVGIFLDYDAGEVSFYNVTERCHTFTFSHATFCGPVRPYFSLSYSGGKSAAPLIICPMSGIDGFSGHVGNHGHSMETSP
# B3: Keratin, type II cytoskeletal 79 (Homo sapiens), Q5XKE5 (parent)
# chain: MRSSVSRQTYSTKGGFSSNSASGGSGSQARTSFSSVTVSRSSGSGGGAHCGPGTGGFGSRSLYNLGGHKSISVSVAGGALLGRALGGFGFGSRAFMGQGAGRQTFGPACPPGGIQEVTVNQSLLTPLHVEIDPEIQRVRTQEREQIKTLNNKFASFIDKVRFLEQQNKVLETKWALLQEQGQNLGVTRNNLEPLFEAYLGSMRSTLDRLQSERGRLDSELRNVQDLVEDFKNKYEDEINKHTAAENEFVVLKKDVDAAYMGRMDLHGKVGTLTQEIDFLQQLYEMELSQVQTHVSNTNVVLSMDNNRNLDLDSIIAEVKAQYELIAQRSRAEAEAWYQTKYEELQVTAGKHGDNLRDTKNEIAELTRTIQRLQGEADAAKKQCQQLQTAIAEAEQRGELALKDAQKKLGDLDVALHQAKEDLTRLLRDYQELMNVKLALDVEIATYRKLLESEESRMSGECPSAVSISVTGNSTTVCGGGAASFGGGISLGGSGGATKGGFSTNVGYSTVKGGPVSAGTSILRKTTTVKTSSQRY
# partner: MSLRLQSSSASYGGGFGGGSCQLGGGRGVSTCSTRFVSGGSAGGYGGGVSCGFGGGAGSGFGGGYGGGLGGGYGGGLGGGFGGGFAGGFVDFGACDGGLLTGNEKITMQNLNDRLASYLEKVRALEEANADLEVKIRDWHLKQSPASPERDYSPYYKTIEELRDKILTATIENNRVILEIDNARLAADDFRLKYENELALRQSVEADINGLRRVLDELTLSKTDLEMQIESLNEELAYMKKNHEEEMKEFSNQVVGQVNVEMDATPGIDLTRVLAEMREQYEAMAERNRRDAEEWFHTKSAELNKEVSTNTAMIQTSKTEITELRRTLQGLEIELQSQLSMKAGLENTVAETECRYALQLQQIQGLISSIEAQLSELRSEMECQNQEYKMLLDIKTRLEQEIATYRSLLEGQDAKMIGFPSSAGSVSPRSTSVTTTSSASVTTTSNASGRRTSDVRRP
# Variants of: B1
# Settings: with use1_human USE1, Q9NZ43
row,Variant,effect of a mutation on the interaction
1,MSTEKVDQKEEAGEKEVCGEQIKGPDKEEEPPAAASHGQGWRPGGRAARNARPEPGARHPALPAMVNDPPVPALLWAQEVGQVLAGRARRLLLQFGVLFCTILLLLWVSVFLYGSFYYSYMPTVSHLSPVHFYYRTDCDSSTTSLCSFPVANVSLTKGGRDRVLMYGQPYRVTLELELPESPVNQDLGMFLVTISCYTRGGRIISTSSRSVMLHYRSDLLQMLDTLVFSSLLLFGFAEQKQLLEVELYADYRENSYVPTTGAIIEIHSKRIQLYGAYLRIHAHFTGLRYLLYNFPMTCAFIGVASNFTFLSVIVLFSYMQWVWGGIWPRHRFSLQVNIRKRDNSRKEVQRRISAHQPGPEGQEESTPQSDVTEDGESPEDPSGTEGQLSEEEKPDQQPLSGEEELEPEASDGSGSWEDAALLTEANLPAPAPASASAPVLETLGSSEPAGGALRQRPTCSSS [D20E],with no effect

# Variants of: B2
# Settings: with if4e_human EIF4E
row,Variant,effect of a mutation on the interaction
1,MASGSVAECLQQETTCPVCLQYFAEPMMLDCGHNICCACLARCWGTAETNVSCPQCRETFPQRHMRPNRHLANVTQLVKQLRTERPSGPGGEMGVCEKHREPLKLYCEEDQMPICVVCDRSREHRGHSVLPLEEAVEGFKEQIQNQLDHLKRVKDLKKRRRAQGEQARAELLSLTQMEREKIVWEFEQLYHSLKEHEYRLLARLEELDLAIYNSINGAITQFSCNISHLSSLIAQLEEKQQQPTRELLQDIGDTLSRAERIRIPEPWITPPDLQEKIHIFAQKCLFLTESLKQFTEKMQSDMEKIQELREAQLYSVDVTLDPDTAYPSLILSDNLRQVRYSYLQQDLPDNPERFSLFPCVLGSPCFIAGRHYWEVEVGDKAKWTIGVCEDSVCRKGGVTSAPQNGFWAVSLWYGKEYWALTSPMTALPLRTPLQRVGIFLDYDAGEVSFYNVTERCHTFTFSHATFCGPVRPYFSLSYSGGKSAAPLIICPMSGIDGFSGHVGNHGHSMETSP [N355S],with no effect

# Variants of: B2
# Settings: with fhl3_human FHL3, Q13643
# Sequence of fhl3_human FHL3, Q13643 (Q13643 whole entry): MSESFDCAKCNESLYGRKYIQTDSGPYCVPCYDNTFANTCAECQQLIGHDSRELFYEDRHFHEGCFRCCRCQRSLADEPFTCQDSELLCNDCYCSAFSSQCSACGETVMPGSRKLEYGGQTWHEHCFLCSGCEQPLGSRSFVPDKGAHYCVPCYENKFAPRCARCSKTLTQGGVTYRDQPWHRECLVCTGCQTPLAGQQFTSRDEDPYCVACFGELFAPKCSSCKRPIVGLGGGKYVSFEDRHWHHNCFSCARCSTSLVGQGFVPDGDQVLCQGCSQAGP
row,Variant,effect of a mutation on the interaction
1,MASGSVAECLQQETTCPVCLQYFAEPMMLDCGHNICCACLARCWGTAETNVSCPQCRETFPQRHMRPNRHLANVTQLVKQLRTERPSGPGGEMGVCEKHREPLKLYCEEDQMPICVVCDRSREHRGHSVLPLEEAVEGFKEQIQNQLDHLKRVKDLKKRRRAQGEQARAELLSLTQMEREKIVWEFEQLYHSLKEHEYRLLARLEELDLAIYNSINGAITQFSCNISHLSSLIAQLEEKQQQPTRELLQDIGDTLSRAERIRIPEPWITPPDLQEKIHIFAQKCLFLTESLKQFTEKMQSDMEKIQELREAQLYSVDVTLDPDTAYPSLILSDNLRQVRYSYLQQDLPDNPERFSLFPCVLGSPCFIAGRHYWEVEVGDKAKWTIGVCEDSVCRKGGVTSAPQNGFWAVSLWYGKEYWALTSPMTALPLRTPLQRVGIFLDYDAGEVSFYNVTERCHTFTFSHATFCGPVRPYFSLSYSGGKSAAPLIICPMSGIDGFSGHVGNHGHSMETSP [N355S],disrupting interaction strength

# Variants of: B2
# Settings: with bmp7_human BMP7, P18075
# Sequence of bmp7_human BMP7, P18075 (P18075 whole entry): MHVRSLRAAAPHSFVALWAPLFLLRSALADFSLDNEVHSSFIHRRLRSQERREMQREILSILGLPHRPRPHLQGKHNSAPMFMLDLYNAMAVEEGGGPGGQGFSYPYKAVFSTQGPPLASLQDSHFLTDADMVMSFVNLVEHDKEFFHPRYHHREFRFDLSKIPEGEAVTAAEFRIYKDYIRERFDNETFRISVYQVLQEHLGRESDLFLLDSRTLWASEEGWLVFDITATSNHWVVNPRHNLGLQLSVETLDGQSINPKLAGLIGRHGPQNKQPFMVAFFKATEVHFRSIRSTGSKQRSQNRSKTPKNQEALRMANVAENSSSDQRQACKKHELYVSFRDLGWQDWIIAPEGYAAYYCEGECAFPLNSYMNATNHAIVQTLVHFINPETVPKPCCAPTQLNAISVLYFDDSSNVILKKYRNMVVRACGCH
row,Variant,effect of a mutation on the interaction
1,MASGSVAECLQQETTCPVCLQYFAEPMMLDCGHNICCACLARCWGTAETNVSCPQCRETFPQRHMRPNRHLANVTQLVKQLRTERPSGPGGEMGVCEKHREPLKLYCEEDQMPICVVCDRSREHRGHSVLPLEEAVEGFKEQIQNQLDHLKRVKDLKKRRRAQGEQARAELLSLTQMEREKIVWEFEQLYHSLKEHEYRLLARLEELDLAIYNSINGAITQFSCNISHLSSLIAQLEEKQQQPTRELLQDIGDTLSRAERIRIPEPWITPPDLQEKIHIFAQKCLFLTESLKQFTEKMQSDMEKIQELREAQLYSVDVTLDPDTAYPSLILSDNLRQVRYSYLQQDLPDNPERFSLFPCVLGSPCFIAGRHYWEVEVGDKAKWTIGVCEDSVCRKGGVTSAPQNGFWAVSLWYGKEYWALTSPMTALPLRTPLQRVGIFLDYDAGEVSFYNVTERCHTFTFSHATFCGPVRPYFSLSYSGGKSAAPLIICPMSGIDGFSGHVGNHGHSMETSP [N355S],with no effect

# Variants of: B2
# Settings: with ercc3_human ERCC3, P19447
# Sequence of ercc3_human ERCC3, P19447 (P19447 whole entry): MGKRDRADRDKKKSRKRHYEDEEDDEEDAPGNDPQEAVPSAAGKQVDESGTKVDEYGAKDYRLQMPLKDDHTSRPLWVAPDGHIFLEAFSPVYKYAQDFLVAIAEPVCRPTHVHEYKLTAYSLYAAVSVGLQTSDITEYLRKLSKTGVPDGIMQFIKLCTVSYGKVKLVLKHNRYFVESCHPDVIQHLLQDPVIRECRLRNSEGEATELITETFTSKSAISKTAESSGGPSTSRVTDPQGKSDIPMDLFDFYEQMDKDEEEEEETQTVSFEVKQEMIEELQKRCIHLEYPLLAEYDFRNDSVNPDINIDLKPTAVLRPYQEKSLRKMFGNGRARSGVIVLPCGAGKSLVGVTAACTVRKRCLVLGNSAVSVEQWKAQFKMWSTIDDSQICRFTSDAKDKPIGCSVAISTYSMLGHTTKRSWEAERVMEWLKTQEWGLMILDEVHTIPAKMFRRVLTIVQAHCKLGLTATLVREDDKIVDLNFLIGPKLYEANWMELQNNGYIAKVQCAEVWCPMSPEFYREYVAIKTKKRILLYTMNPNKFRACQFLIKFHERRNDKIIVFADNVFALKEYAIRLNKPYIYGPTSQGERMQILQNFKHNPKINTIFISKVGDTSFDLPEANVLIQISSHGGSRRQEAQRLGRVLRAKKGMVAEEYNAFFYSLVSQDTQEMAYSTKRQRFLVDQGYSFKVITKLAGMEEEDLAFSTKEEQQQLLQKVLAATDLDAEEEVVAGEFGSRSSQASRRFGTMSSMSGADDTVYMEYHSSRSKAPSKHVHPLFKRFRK
row,Variant,effect of a mutation on the interaction
1,MASGSVAECLQQETTCPVCLQYFAEPMMLDCGHNICCACLARCWGTAETNVSCPQCRETFPQRHMRPNRHLANVTQLVKQLRTERPSGPGGEMGVCEKHREPLKLYCEEDQMPICVVCDRSREHRGHSVLPLEEAVEGFKEQIQNQLDHLKRVKDLKKRRRAQGEQARAELLSLTQMEREKIVWEFEQLYHSLKEHEYRLLARLEELDLAIYNSINGAITQFSCNISHLSSLIAQLEEKQQQPTRELLQDIGDTLSRAERIRIPEPWITPPDLQEKIHIFAQKCLFLTESLKQFTEKMQSDMEKIQELREAQLYSVDVTLDPDTAYPSLILSDNLRQVRYSYLQQDLPDNPERFSLFPCVLGSPCFIAGRHYWEVEVGDKAKWTIGVCEDSVCRKGGVTSAPQNGFWAVSLWYGKEYWALTSPMTALPLRTPLQRVGIFLDYDAGEVSFYNVTERCHTFTFSHATFCGPVRPYFSLSYSGGKSAAPLIICPMSGIDGFSGHVGNHGHSMETSP [N355S],with no effect

# Variants of: B3
# Settings: with KRT13, P13646
row,Variant,effect of a mutation on the interaction
1,MRSSVSRQTYSTKGGFSSNSASGGSGSQACTSFSSVTVSRSSGSGGGAHCGPGTGGFGSRSLYNLGGHKSISVSVAGGALLGRALGGFGFGSRAFMGQGAGRQTFGPACPPGGIQEVTVNQSLLTPLHVEIDPEIQRVRTQEREQIKTLNNKFASFIDKVRFLEQQNKVLETKWALLQEQGQNLGVTRNNLEPLFEAYLGSMRSTLDRLQSERGRLDSELRNVQDLVEDFKNKYEDEINKHTAAENEFVVLKKDVDAAYMGRMDLHGKVGTLTQEIDFLQQLYEMELSQVQTHVSNTNVVLSMDNNRNLDLDSIIAEVKAQYELIAQRSRAEAEAWYQTKYEELQVTAGKHGDNLRDTKNEIAELTRTIQRLQGEADAAKKQCQQLQTAIAEAEQRGELALKDAQKKLGDLDVALHQAKEDLTRLLRDYQELMNVKLALDVEIATYRKLLESEESRMSGECPSAVSISVTGNSTTVCGGGAASFGGGISLGGSGGATKGGFSTNVGYSTVKGGPVSAGTSILRKTTTVKTSSQRY [R30C],with no effect
